Source: patent US9012420B2, “Aptamer for chymase, and use thereof” (Ribomic Inc., priority 2009, dated 2015)
Changes are numbered by the printed parent chain. Oligonucleotides are written 5' to 3', each unit as a sugar letter and its base; * is a phosphorothioate linkage, no mark a phosphodiester; rarer units and linkages stand in square brackets, end groups in braces. Plain capitals give the bases only. r = 2'-OH (RNA); f = 2'-fluoro

T1: chymase (recombinant, manufactured by SIGMA) (Homo sapiens, UniProt P23946)
T1 construct: purchased SIGMA; host or cells: yeast
T1 sequence (P23946 22-247): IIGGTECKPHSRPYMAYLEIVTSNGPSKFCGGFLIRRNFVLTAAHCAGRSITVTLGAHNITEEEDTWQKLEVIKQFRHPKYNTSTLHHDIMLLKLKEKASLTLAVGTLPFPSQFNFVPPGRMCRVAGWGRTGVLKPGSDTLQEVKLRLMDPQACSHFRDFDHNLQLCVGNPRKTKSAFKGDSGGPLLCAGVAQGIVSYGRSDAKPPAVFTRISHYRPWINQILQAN

T2: chymase (recombinant) (UniProt P23946 P23946:22-247)
T2 sequence: T1 sequence (P23946 22-247)

B1: SEQ 5 (ssRNA)
RNA: GGGACGGUAGGAAUUCCCACUUGUCUUUGAGGCAAGAAAUUGUAUUCCGAAGAAGCAUAGAAGAGCGGCCGC
modifications: 2'-F pyrimidines
B2: SEQ 6 (ssRNA)
RNA: GGGACGGUAGGAAUUCUACGGUCUGUGUGAAAUUGAAACACACAAAGAACAAUAGACAUAGAAGAGCGGCCGC
modifications: 2'-F pyrimidines
B3: SEQ 8 (ssRNA)
RNA: B2 RNA with G55A
modifications: 2'-F pyrimidines
B4: SEQ 9 (ssRNA)
RNA: GGGACGGUAGGAAUUCCCGAAAAGCAACAAGCUUGCUAAAAUGAUUCCGAAAAAACACAUAGAAGAGCGGCCGC
modifications: 2'-F pyrimidines
B5: SEQ 11 (ssRNA)
RNA: GGGACGGUAGGAAUUCCCGACACGAAAUGUGUGAUUAAUUCCGAACAACAAAGUAACAUAGAAGAGCGGCCGC
modifications: 2'-F pyrimidines
B6: SEQ 12 (ssRNA)
RNA: GGGACGGUAGGAAUUCGCCGUCAACGUUACAUAAUGUAUAUACCAGGGUAACUAAACAUAGAAGAGCGGCCGC
modifications: 2'-F pyrimidines
B7: SEQ 14 (ssRNA)
RNA: GGGACGGUAGGAAUUCUCGUUCCUGACAGCAUUUGAGAUAGAUUUAAACAAACGCACAUAGAAGAGCGGCCGC
modifications: 2'-F pyrimidines
B8: SEQ 15 (ssRNA)
RNA: GGGACGGUAGGAAUUCCCAGAAAAUAAAUUCCGAAGAAAACAACAAUUUUUGCAAACAUAGAAGAGCGGCCGC
modifications: 2'-F pyrimidines
B9: SEQ 17 (ssRNA)
RNA: GGGACGGUAGGAAUUCCGUUCGCAGAAACGAACUUUUAAAAAAUGUACGUGGGAGCACAUAGAAGAGCGGCCGC
modifications: 2'-F pyrimidines
B10: SEQ 18 (ssRNA)
RNA: GGGACGGUAGGAAUUCGAACGACAAAUUAUAGAACUUCGUUUGACAUUCCACACCACAUAGAAGAGCGGCCGC
modifications: 2'-F pyrimidines
B11: SEQ 19 (ssRNA)
RNA: GGGACGGUAGGAAUUCCCACUGCAAUUCAGCAGAAAAAAUUCCGAAAAACACACACCAUAGAAGAGCGGCCGC
modifications: 2'-F pyrimidines
B12: SEQ 23 (ssRNA)
RNA: GGGACGGUAGGAAUUCAUAUGUACUCCGUCCUGACAAAAUGUCAAUGACAAACGUUCAUAGAAGAGCGGCCGC
modifications: 2'-F pyrimidines
B13: SEQ 24 (ssRNA)
RNA: GGGACGGUAGGAAUUCCCUUCAUAGUAGAAUGUUGGUUUCUACAAAAGCGACAAGCAUAGAAGAGCGGCCGC
modifications: 2'-F pyrimidines
B14: SEQ 25 (ssRNA)
RNA: GGGACGGUAGGAAUUCAGCUGACUCCAAUGCACACGUAGAUAGAGUUAAAACGUUGCAUAGAAGAGCGGCCGC
modifications: 2'-F pyrimidines
B15: SEQ 26 (ssRNA)
RNA: GGGACGGUAGGAAUUCGUCGAUUCUACAGAUAGAGAUAAAGUAGAAUUUAACAAAACAUAGAAGAGCGGCCGC
modifications: 2'-F pyrimidines
B16: SEQ 30 (ssRNA)
RNA: GGGACGGUAGGAAUUCGUCCCUCUUGUCUAUUUUGCAGAUAGACUUAAAGCAAACAUAGAAGAGCGGCCGC
modifications: 2'-F pyrimidines

How the values were obtained:
[1] = target: T1, chymase (recombinant, manufactured by SIGMA); assay: Surface plasmon resonance (Biacore T100), chymase immobilized on CM5 chip, nucleic acid injected as analyte; type: binding; set-up: key to binding activity using Biacore: ++: significant binding to chymase than SEQ ID NO: 58 which is a negative control; +: similar binding level as SEQ ID NO: 58 which is a negative control; conditions: Table 5; same manner as Example 4; compared with SEQ ID NO: 58
Method: In another method, chymase is first immobilized onto a sensor chip, the amount immobilized being about 4000 RU. 20 μL of an aptamer solution for analyte, prepared at 0.01 μg/μL, is injected, and the binding of the aptamer to chymase is detected. An RNA containing a random nucleotide sequence of 30 or 40 nucleotides is used as a negative control.
Whether these nucleic acids bind to chymase was determined by the surface plasmon resonance method. Measurements were taken using Biacore T100 (manufactured by GE Healthcare) as described below. About 4000 RU of chymase (recombinant, manufactured by SIGMA) was immobilized on the sensor chip surface of a CM5 chip, using an amine coupling kit. 20 μL of each nucleic acid, prepared at 0.3 μM, as an analyte was injected at a flow rate of 20 μL/min. Solution C was used as a running buffer. The method of evaluation used was the same as Example 1.
All nucleic acids of SEQ ID NO: 58-68 were prepared by chemical synthesis. Whether these nucleic acids are bound to chymase was assessed by surface plasmon resonance method in the same manner as in Example 4. The inhibitory activity on chymase was measured in the same manner as in Example 3.
All nucleic acids of SEQ ID NOs: 73-79, 56(8), 80, 56(10), 81, 56(13)-56(14), 83-87 were prepared by chemical synthesis. Whether these nucleic acids are bound to chymase was assessed by surface plasmon resonance method in the same manner as in Example 4.
All nucleic acids of SEQ ID NO: 88-120, 121, 69, 122, 123, 70-72, 124-131 were prepared by chemical synthesis. Whether these nucleic acids are bound to chymase was assessed by surface plasmon resonance method in the same manner as in Example 4.

[2] = target: T1, chymase (recombinant, manufactured by SIGMA); assay: Chymase inhibitory activity using synthetic substrate Suc-Ala-Ala-Pro-Phe-MCA; type: biochemical; conditions: Table 5; same manner as Example 3; mean value of two measurements
Summary of the method: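 Human recombinant chymase (16.7 nM or 1.67 nM final) preincubated 5 min at 37° C., then added to nucleic acid (0.0027–2 μM serial dilutions) and 100 μM substrate in solution C. AMC fluorescence (ex 380/em 460 nm) followed 5 or 30 min at 37° C.; slope gives initial velocity, inhibition versus no-inhibitor control yields IC50.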

chymase (recombinant) [3] = target: T2, chymase (recombinant); assay: inhibition; SPR ++; conditions: tags: SIGMA, expressed in yeast
Method: (§1) Here, Suc is a protecting succinyl group, and MCA is a 4-methylcoumaryl-7-amide group; upon cleavage of the C-terminal side of phenylalanine, AMC (7-amino-4-methyl-coumarine) is released. By detecting the fluorescence of this AMC, the enzyme activity of chymase can be determined. The assay was performed using a 96-well plate (F16 Black Maxisorp Fluoronunc, manufactured by Nunc), with a reaction mixture volume of 100 μL, in solution C as a buffer solution. First, each nucleic acid was serially diluted to 0.0027-2 μM concentrations in solution C to obtain 50 μL solutions. After 10 μL of the 1 mM substrate prepared in solution C was added thereto, the plate was set to the microplate reader SpectraMax190 (manufactured by Molecular Devices Corporation), and incubated at 37° C. for 5 minutes. Separately, 0.05 μg (or 0.005 μg) of chymase (recombinant, manufactured by SIGMA) was diluted in solution C to obtain a 40 μL chymase solution, and incubated at 37° C. for 5 minutes. The chymase solution was added to the mixture of the nucleic acid and substrate to initiate an enzyme reaction. The final chymase concentration in the reaction mixture was 16.7 nM (or 1.67 nM), the final substrate concentration being 100 μM. The plate containing the reaction mixture was set to the microplate reader SpectraMax190 (manufactured by Molecular Devices Corporation), and examined for time-dependent changes in the fluorescence intensity at 37° C. for 5 minutes (or 30 minutes) (excitation wavelength 380 nm, detection wavelength 460 nm). A linear approximation of the increase in the fluorescence of the AMC released from the substrate by chymase activity was generated, and its slope was taken as the initial velocity […]. For control, samples were treated and analyzed in the same manner in two cases: use of a 30N or 40N (a nucleotide of 30 or 40 consecutive bases represented by N; N is A, G, C or T) nucleic acid pool (negative control), and use of chymostatin, a known chymotrypsin-like serine protease inhibitor (positive control). Taking the initial reaction velocity without the nucleic acid and inhibitor (V_0) as a 100% enzyme activity, the inhibitory rate of each test substance was calculated using the following equation: […]
The inhibitory activity on chymase was measured in the same manner as in Example 3.

chymase (recombinant) [4] = target: T2, chymase (recombinant); assay: inhibition; SPR ++; conditions: tags: SIGMA, expressed in yeast; remark: listed apart in the source
Method: as §1

| Molecule | IC50 (chymase (recombinant) [3]) [nM] | IC50 (chymase (recombinant) [4]) [nM] | other results |
| --- | --- | --- | --- |
| 63 (rGfCfUrAfCrArGrAfUrArGrArGfUfUrArArArGfUrArGfC) [compound 63] | – | – | binding activity using Biacore [1]: ++; IC50 [2]: 23 ± 3 nM |
| 64 (rGfUfCrAfCrArGrAfUrArGrArGfUfUrArArArGfUrGrAfC) [compound 64] | – | – | binding activity using Biacore [1]: ++; IC50 [2]: 20 ± 5 nM |
| 66 (GGGUUAGAUCGAGUUAAAAACCC; listed as RNA, chemistry not fully specified) [compound 66] | – | – | binding activity using Biacore [1]: +; IC50 [2]: > 1000 nM |
| 67 (GGGUUAGAUACAGUUAAAAACCC; listed as RNA, chemistry not fully specified) [compound 67] | – | – | binding activity using Biacore [1]: +; IC50 [2]: > 1000 nM |
| 68 (GGGUUAGAUAGUGUUAAAAACCC; listed as RNA, chemistry not fully specified) [compound 68] | – | – | binding activity using Biacore [1]: +; IC50 [2]: > 1000 nM |
| GGGUUAGAUAGAGUUAAAAACCC (ssRNA, 2'-F pyrimidines; PS between U5 and A6) [56(18)] | 12 | – | – |
| GGGUUAGAUAGAGUUAAAAACCC (ssRNA, 2'-F pyrimidines; PS between A6 and G7) [56(19)] | 8 | – | – |
| B1 | – | 80 | – |
| B2 | – | 456 | – |
| B3 | – | 453 | – |
| B4 | – | 273 | – |
| B5 | – | 145 | – |
| B6 | – | 128 | – |
| B7 | – | 61 | – |
| B8 | – | 285 | – |
| B9 | – | 92 | – |
| B10 | – | 58 | – |

| Molecule | IC50 (chymase (recombinant) [3]) [nM] | IC50 (chymase (recombinant) [4]) [nM] | other results |
| --- | --- | --- | --- |
| B11 | – | 163 | – |
| B12 | – | 238 | – |
| B13 | – | 92 | – |
| B14 | – | 79 | – |
| B15 | – | 106 | – |
| B16 | – | 147 | – |
| GGGUUAGAUAGAGUUAAAAACCC (ssRNA, 2'-F pyrimidines; 5' and 3' idT) [56(1)] | 26 | – | – |
| GGGUUAGAUAGAGUUAAAAACCC (ssRNA, 2'-F pyrimidines; 2'-OMe G1-G3) [56(2)] | 24 | – | – |
| GGGUUAGAUAGAGUUAAAAACCC (ssRNA, 2'-F pyrimidines; 2'-OMe A19,A20) [56(3)] | 25 | – | – |
| GGGUUAGAUAGAGUUAAAAACCC (ssRNA, 2'-F pyrimidines; 2'-OMe A10) [56(4)] | 27 | – | – |
| GGGUUAGAUAGAGUUAAAAACCC (ssRNA, 2'-F pyrimidines; 2'-OMe A16,A17) [56(5)] | 29 | – | – |
| GGGUUAGAUAGAGUUAAAAACCC (ssRNA, 2'-F pyrimidines; 2'-OMe G7) [56(6)] | 31 | – | – |
| GGGUUAGAUAGAGUUAAAAACCC (ssRNA, 2'-F pyrimidines; 2'-OMe A8) [56(7)] | 38 | – | – |
| GGGUUAGAUAGAGUUAAAAACCC (ssRNA, 2'-F pyrimidines; 2'-OMe A12) [56(9)] | 111 | – | – |
| GGGUUAGAUAGAGUUAAAAACCC (ssRNA, 2'-F pyrimidines; 2'-OMe A18) [56(11)] | 28 | – | – |
| GGGUUAGAUAGAGUUAAAAACCC (ssRNA, 2'-F pyrimidines; 2'-OMe G13) [56(12)] | 35 | – | – |
